Data on eleven molecules can be found in paper PMC6379965, “Expression and activity of the calcitonin receptor family in a sample of primary human high-grade gliomas” (BMC Cancer, 2019).

Where two headings read alike, the source gives them in different places. Ends that are not written are not given here.

One experiment addresses T1, CTR in SB2b cell line (Homo sapiens, UniProt P30988).
T1 construct: only one of the studied cell lines expressed functional CTR; endogenous in cells; host or cells: SB2b patient-derived high-grade glioma cell line
T1 sequence (P30988 25-474): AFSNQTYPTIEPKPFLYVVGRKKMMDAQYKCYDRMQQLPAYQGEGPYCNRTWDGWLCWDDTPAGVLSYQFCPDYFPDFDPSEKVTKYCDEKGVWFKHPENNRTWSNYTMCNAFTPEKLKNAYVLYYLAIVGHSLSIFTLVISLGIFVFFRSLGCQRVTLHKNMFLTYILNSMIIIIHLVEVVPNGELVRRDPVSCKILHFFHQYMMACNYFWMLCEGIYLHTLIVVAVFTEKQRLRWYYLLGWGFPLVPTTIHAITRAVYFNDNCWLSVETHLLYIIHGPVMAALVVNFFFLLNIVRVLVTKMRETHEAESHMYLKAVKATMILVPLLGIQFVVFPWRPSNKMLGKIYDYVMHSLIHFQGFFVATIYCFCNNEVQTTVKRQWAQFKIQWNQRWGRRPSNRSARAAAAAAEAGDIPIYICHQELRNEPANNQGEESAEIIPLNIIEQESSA
The experiment in a line: cAMP accumulation, CTR agonists, SB2b. In kind it is cell-based. Conditions: read-out: Emax, cAMP accumulation. Here is the method:
(§1) Primary patient high-grade glioma (HGG) cell lines, in vitro surrogates of glioblastoma, were developed by QIMR-Berghofer Medical Research Institute (Brisbane, Australia) and represent 3 distinct GBM subtypes: SB2b and PB1 (classical), JK2 (proneural) and WK1(mesenchymal), who supplied these directly for this study. GBM cell lines were cultured as adherent monolayers on matrigel (BD Biosciences)-coated flasks using StemPro NSC SFM serum free cell culture medium (Thermo Fisher Scientific) supplemented with 20 ng/ml EGF and 20 ng/ml FGFb, 1% D-glutamine and 1% of penicillin/ streptomycin (further referred as StemPro complete medium).
GBM cell lines were seeded at 38000 cells/well (SB2b) or 35,000 cells/well (PB1, JK2 and WK1) in 96-well matrigel-coated plates and incubated for 24 h at 37°C, 5% CO2 in humidified incubator in StemPro complete medium. Media was replaced with stimulation buffer (phenol red free F12 media, 0.1% BSA, 0.5 mM IBMX, pH 7.4). […] Cells were lysed (0.3% Tween 20, 5 mM Hepes, 0.1% BSA, pH 7.4) and 5 μl of cell lysate from each well was transferred to a corresponding well of 384-well optiplate. […] Data were analysed by three-parameter logistic curve and are presented as percentage of 10^− 5 M forskolin response.

Another experiment has as its system JK2 cell line. Description: cAMP accumulation, CTR agonists, JK2. In kind it is cell-based, human. Conditions: 1 μM antagonist. Here is the method:
as §1, with “medium). Cells were cultured in 5% CO2 / 95% humidified air at 37 °C.” for “medium).”
(§2) GBM cell lines were seeded at 38000 cells/well (SB2b) or 35,000 cells/well (PB1, JK2 and WK1) in 96-well matrigel-coated plates and incubated for 24 h at 37°C, 5% CO2 in humidified incubator in StemPro complete medium. Media was replaced with stimulation buffer (phenol red free F12 media, 0.1% BSA, 0.5 mM IBMX, pH 7.4). […] Cells were lysed (0.3% Tween 20, 5 mM Hepes, 0.1% BSA, pH 7.4) and 5 μl of cell lysate from each well was transferred to a corresponding well of 384-well optiplate. Intracellular cAMP levels in the wells were determined using Lance Ultra cAMP assay kit (Perkin Elmer) according to the manufacturer’s instructions and detected using an Envision multilabel 2103 reader. Raw RFU values were converted using a cAMP standard curve to give absolute cAMP concentrations. Data were analysed by three-parameter logistic curve and are presented as percentage of 10^− 5 M forskolin response.
A general note: Changes in cAMP serve as a functional read-out for many G protein-coupled receptors.

Experiment [1] concerns PB1 cell line. Description: cAMP accumulation, CTR agonists, PB1. In kind it is cell-based, human. Conditions: 1 μM antagonist. How it is done: as §1, with “medium). Cells were cultured in 5% CO2 / 95% humidified air at 37 °C.” for “medium).”
as §2

In the next experiment the test system is SB2b cell line. The experiment in a line: Ca2+ mobilization, SB2b. The format is cell-based, human. As to conditions: Fluo4-AM, FlexStation, 37 °C, pH 7.4, peak RFU, ATP 10 μM, ionomycin 1 μM, representative experiment, 3 replicates. (In general: Calcium assays in cells follow changes in intracellular calcium, usually with a dye or a luminescent sensor.)
Experiment [2] has as its system WK1 cell line. The experiment in a line: Ca2+ mobilization, WK1. Conditions: Fluo4-AM, FlexStation, 37 °C, pH 7.4, peak RFU, ATP 10 μM, ionomycin 1 μM, representative experiment, 3 replicates. In kind it is cell-based, human.
Description: (§3) Primary patient high-grade glioma (HGG) cell lines, in vitro surrogates of glioblastoma, were developed by QIMR-Berghofer Medical Research Institute (Brisbane, Australia) and represent 3 distinct GBM subtypes: SB2b and PB1 (classical), JK2 (proneural) and WK1(mesenchymal) [37], who supplied these directly for this study. GBM cell lines were cultured as adherent monolayers on matrigel (BD Biosciences)-coated flasks using StemPro NSC SFM serum free cell culture medium (Thermo Fisher Scientific) supplemented with 20 ng/ml EGF and 20 ng/ml FGFb, 1% D-glutamine and 1% of penicillin/ streptomycin (further referred as StemPro complete medium).
(§4) GBM cell lines were seeded at 38000 cells/well (SB2b) or 35,000 cells/well (PB1 and WK1) in 96-well matrigel-coated plates and incubated for 24 h at 37 °C, 5% CO2 in humidified incubator in StemPro complete medium. […] Cells were incubated at 37°C for 60 min before ligand addition and detection of Ca^2+ mobilisation in a FlexStation 3 (Molecular Devices).
Experiment [3] concerns PB1 cell line. The experiment in a line: Ca2+ mobilization, PB1. In kind it is cell-based, human. Conditions: Fluo4-AM, FlexStation, 37 °C, pH 7.4, peak RFU, ATP 10 μM, ionomycin 1 μM, representative experiment, 3 replicates.
Description: as §3, §4
In experiment [4] the target is calcitonin receptor (human (endogenous in SB2b)) (UniProt P30988).
Experiment [5] addresses CGRP (CLR/RAMP1) receptor (human (endogenous in PB1, JK2 and WK1)) (UniProt Q16602).
Experiment [6] deals with WK1 cell line. The experiment in a line: cAMP accumulation, CTR agonists, WK1. In kind it is cell-based, human. As to conditions: 1 μM forskolin. Here is the method:
as §1, with “medium). Cells were cultured in 5% CO2 / 95% humidified air at 37 °C.” for “medium).”
GBM cell lines were seeded at 38000 cells/well (SB2b) or 35,000 cells/well (PB1, JK2 and WK1) in 96-well matrigel-coated plates and incubated for 24 h at 37°C, 5% CO2 in humidified incubator in StemPro complete medium. Media was replaced with stimulation buffer (phenol red free F12 media, 0.1% BSA, 0.5 mM IBMX, pH 7.4). […] Intracellular cAMP levels in the wells were determined using Lance Ultra cAMP assay kit (Perkin Elmer) according to the manufacturer’s instructions and detected using an Envision multilabel 2103 reader. […] Data were analysed by three-parameter logistic curve and are presented as percentage of 10^− 5 M forskolin response.

Experiment [7] concerns the target CGRP (CLR/RAMP1) receptor (human (endogenous in PB1, JK2 and WK1)) (UniProt Q16602). This is another data set of the same source.

Chain of CGRP (CLR/RAMP1) receptor (human (endogenous in PB1, JK2 and WK1)) (Q16602 23-461, chain 1 of 2): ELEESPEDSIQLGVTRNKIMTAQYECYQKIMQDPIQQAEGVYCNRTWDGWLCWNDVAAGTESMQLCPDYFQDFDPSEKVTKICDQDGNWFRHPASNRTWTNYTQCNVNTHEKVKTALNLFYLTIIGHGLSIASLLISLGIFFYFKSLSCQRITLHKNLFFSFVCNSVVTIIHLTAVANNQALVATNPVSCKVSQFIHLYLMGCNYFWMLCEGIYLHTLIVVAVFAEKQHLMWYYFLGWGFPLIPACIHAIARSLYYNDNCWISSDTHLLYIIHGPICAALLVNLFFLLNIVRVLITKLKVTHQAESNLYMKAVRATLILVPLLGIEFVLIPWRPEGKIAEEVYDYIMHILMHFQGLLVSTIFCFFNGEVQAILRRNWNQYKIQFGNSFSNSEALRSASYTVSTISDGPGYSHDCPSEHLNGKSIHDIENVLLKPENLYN
Chain of CGRP (CLR/RAMP1) receptor (human (endogenous in PB1, JK2 and WK1)) (O60894 27-148, chain 2 of 2, further chain): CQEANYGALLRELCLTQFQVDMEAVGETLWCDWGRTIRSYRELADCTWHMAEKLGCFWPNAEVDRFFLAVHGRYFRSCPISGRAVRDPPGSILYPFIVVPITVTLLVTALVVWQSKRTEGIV

Regarding `CC(C)C[C@H](NC(=O)[C@H](CCCCN)NC(=O)CNC(=O)[C@H](CC(C)C)NC(=O)[C@@H](NC(=O)[C@@H]1CSSC[C@H](N)C(=O)N[C@@H](CO)C(=O)N[C@@H](CC(N)=O)C(=O)N[C@@H](CC(C)C)C(=O)N[C@@H](CO)C(=O)N[C@@H]([C@@H](C)O)C(=O)N1)C(C)C)C(=O)N[C@@H](CO)C(=O)N[C@@H](CCC(N)=O)C(=O)N[C@@H](CCC(=O)O)C(=O)N[C@@H](CC(C)C)C(=O)N[C@@H](Cc1c[nH]cn1)C(=O)N[C@@H](CCCCN)C(=O)N[C@@H](CC(C)C)C(=O)N[C@@H](CCC(N)=O)C(=O)N[C@H](C(=O)N[C@@H](Cc1ccc(O)cc1)C(=O)N1CCC[C@H]1C(=O)N[C@@H](CCCNC(=N)N)C(=O)N[C@H](C(=O)N[C@@H](CC(N)=O)C(=O)N[C@H](C(=O)NCC(=O)N[C@@H](CO)C(=O)NCC(=O)N[C@H](C(=O)N1CCC[C@H]1C(N)=O)[C@@H](C)O)[C@@H](C)O)[C@@H](C)O)[C@@H](C)O` [sCT, Salmon CT], the Emax (as a rule, the greatest response seen or fitted, relative to the assay's reference) at CTR in SB2b cell line is 35%.

On to `CC[C@H](C)[C@H](NC(=O)[C@H](C)NC(=O)[C@@H](NC(=O)[C@H](CCC(N)=O)NC(=O)[C@@H]1CCCN1C(=O)[C@H](Cc1ccccc1)NC(=O)[C@@H](NC(=O)[C@H](Cc1c[nH]cn1)NC(=O)[C@H](Cc1ccccc1)NC(=O)[C@H](CCCCN)NC(=O)[C@H](CC(N)=O)NC(=O)[C@H](Cc1ccccc1)NC(=O)[C@H](CC(=O)O)NC(=O)[C@H](CCC(N)=O)NC(=O)[C@@H](NC(=O)[C@H](Cc1ccc(O)cc1)NC(=O)[C@@H](NC(=O)CNC(=O)[C@H](CC(C)C)NC(=O)[C@H](CCSC)NC(=O)[C@@H]1CSSC[C@H](N)C(=O)NCC(=O)N[C@@H](CC(N)=O)C(=O)N[C@@H](CC(C)C)C(=O)N[C@@H](CO)C(=O)N[C@@H]([C@@H](C)O)C(=O)N1)[C@@H](C)O)[C@@H](C)O)[C@@H](C)O)[C@@H](C)O)C(=O)NCC(=O)N[C@H](C(=O)NCC(=O)N[C@@H](C)C(=O)N1CCC[C@H]1C(N)=O)C(C)C` [hCT, Human CT], for which, on CTR in SB2b cell line, the Emax was determined as 43%.

Turning to “αCGRP(8–37): CGRP receptor antagonist (VTHRLAGLLSRSGGVVKNNFVPTNVGSKAF; ends and bridges not checked; UniProt P06881 90-119, looked up, fragment)”, the “effect of antagonist on amylin cAMP response” value in the experiment on JK2 cell line and in the experiment on PB1 cell line [1] was “abolishing this response” each time.

As to `Nc1ncnc2c1ncn2[C@@H]1O[C@H](COP(=O)(O)OP(=O)(O)OP(=O)(O)O)[C@@H](O)[C@H]1O` [ATP], the “intracellular Ca2+ mobilisation response” value with SB2b cell line, in the experiment on WK1 cell line [2] and with PB1 cell line [3] was “robust response” in each case.

Turning to “human calcitonin (from UniProt P01258 85-116) (peptide)”, the Emax of cAMP accumulation in SB2b cells (% of forskolin) in experiment [4] came to 43.

As to αCGRP(8–37) (peptide), the shift of the cAMP potency of αCGRP by 1 μM αCGRP(8–37) in PB1, JK2 and WK1 cells; blocks m4 + m8 in experiment [5] came to 100 fold.

With `C[C@H](CCC(=O)O)C[C@H](C)C[C@H](C)C(=O)/C=C(\O)[C@H](C)C[C@H](C)C/C=C/[C@@H](C)[C@@H](O)[C@@H](C)[C@@H](O)C[C@@H]1CC[C@@](C)([C@H]2CC[C@@](C)([C@@H](C)O)O2)O1` [ionomycin], the “intracellular Ca2+ mobilisation response” value in the experiment with SB2b cell line, in the experiment on WK1 cell line [2] and in the experiment on PB1 cell line [3] was “robust response” throughout.

For `C=C[C@@]1(C)CC(=O)[C@]2(O)[C@@]3(C)[C@@H](O)CCC(C)(C)[C@@H]3[C@H](O)[C@H](OC(C)=O)[C@@]2(C)O1` [forskolin], the “increase of basal cAMP” value in the experiment with WK1 cell line [6] was 4 fold.

Take salmon calcitonin (peptide): in experiment [4], the Emax of cAMP accumulation in SB2b cells (% of forskolin) came to 35 and the pEC50 of cAMP accumulation (30 min) in SB2b cells came out at 9.4 pEC50.

B1: adrenomedullin (peptide)
peptide: YRQSMNNFQGLRSFGCRFGTCTVQKLAHQIYQFTDKDKDNVAPRSKISPQGY
For the molecule B1, in experiment [5], the pEC50 of cAMP accumulation (30 min) in JK2 cells was determined as 7 pEC50; the pEC50 of cAMP accumulation (30 min) in PB1 cells was determined as 7.3 pEC50; the pEC50 of cAMP accumulation (30 min) in WK1 cells was 6.8 pEC50; the pEC50 of cAMP accumulation to AM alone, antagonist experiment, JK2 cells turned out to be 7.2 pEC50. In experiment [5], the pEC50 of cAMP accumulation to AM alone, antagonist experiment, PB1 cells amounted to 7.2 pEC50; the pEC50 of cAMP accumulation to AM alone, antagonist experiment, WK1 cells amounted to 6.9 pEC50; the pEC50 of cAMP accumulation to AM with 1 μM AM(22–52), JK2 cells came out at 7.3 pEC50; the pEC50 of cAMP accumulation to AM with 1 μM AM(22–52), PB1 cells is 7.1 pEC50. This molecule also yielded a pEC50 of cAMP accumulation to AM with 1 μM AM(22–52), WK1 cells in experiment [5] of 6.7 pEC50.

As to KCNTATCATQRLANFLVRSSNNLGPVLPPTNVGSNTY [amylin (rAmy)], in experiment [4], the pEC50 of cAMP accumulation (30 min) in SB2b cells came out at 6.8 pEC50. In experiment [7], this molecule yielded a pEC50 of cAMP accumulation (30 min) in JK2 cells of 5.9 pEC50 and a pEC50 of cAMP accumulation (30 min) in PB1 cells of 6.1 pEC50.
